The values below come from patent US20190111148A1 (MONASH UNIVERSITY, published 2019).

Usually Kd stands for the equilibrium constant for the complex coming apart. The low end stands for tighter binding, the high end for weaker binding. Usually koff stands for the rate constant with which the complex falls apart. Low values mean slow dissociation, high ones fast dissociation.

The target of test [1] is T1, human IL-21 (human, UniProt Q9HBE4 25-162, limits assumed). As to the kind of experiment: cell-based or functional assay.
T1 sequence (Q9HBE4 25-162 limits assumed): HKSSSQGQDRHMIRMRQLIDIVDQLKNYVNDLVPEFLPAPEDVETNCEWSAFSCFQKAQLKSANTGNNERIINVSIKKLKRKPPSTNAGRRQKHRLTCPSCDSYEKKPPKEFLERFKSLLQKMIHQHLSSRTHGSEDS
For test [2], the target named is T1, human IL-21. As to the kind of experiment: SPR (ProtOn XPR36), biotinylated hIL21 immobilised on NLC chip, antibody in flow, triplicates. On the procedure:
Triplicates SPR measurements were conducted on ProtOn XPR36 (Bio-rad). NLC chips (Bio-rad) were used to immobilise biotinylated hIL21 on ligand channels, followed by flowing through of various concentrations of mouse 2P2 or humanised 2P2.

In another test the target is mIL21 (mouse, UniProt Q9ES17). As to the kind of experiment: ELISA: coated mIL21, biotinylated 2P2, Streptavidin-HRP/TMB, A450.
For test [3], the target named is T1, human IL-21. As to the kind of experiment: SPR, immobilised mAb, IL-21 in flow; average of the five wells of Table 6 (unit from Table 6); average with range and SD of the five measurements. The method, then: Surface Plasma Resonance binding kinetics assay were performed on a Bio-rad XPR36 system by the direct amine coupling method. Briefly, a flow of mixture of EDC [N-ethyl-N′-(3-diethylamino-propyl) carbodiimide] and NHS (N-hydroxysuccinimide) was used to activate the cell surface of a GLC sensor chip before 25 μg/ml anti-IL-21 mAb was flowed through, then a shot flow of ethanolamine was used to block the remaining active sites on the cell surface. Afterwards, serial diluted solutions of IL-21 from 0 to 40 nM were flown over the cell surface to bind to the immobilized anti-IL-21 mAb molecules. Binding kinetics were performed at 25° C. with a flow rate of 30 μL/min, association time of 3 min and dissociation time of 6 min. The buffer consisted of Hepes, NaCl, tween20, and 1 mg/mL BSA at pH 7.4. The flow cell regeneration buffer between cycles was 15 mM phosphoric acid. Double references were used to process the sensorgrams. The binding curves were globally fit to the 1:1 Langmuir binding model.
(In general: In SPR one partner is held on a chip, and binding of the other changes the refractive index at the surface.)

The next test addresses T2, Peptide 2 (P2).
T2 construct: also called peptide 2 of hIL-21; Peptide 2 (P2, 27aa)
As to the kind of experiment: peptide ELISA: coated peptide, biotinylated 2P2, Streptavidin-HRP/TMB, A450. The method, then: (§1) To detect epitopes of 2P2 and 3A3, peptides consisting of different regions of hIL-21 were synthesized commercially and coated on an ELISA plate, followed by blocking of non-specific binding sites with 3% BSA in PBS. Biotinylated 2P2 or 3A3 were then added to the wells and developed with Streptavidin-HRP and TMB substrates.

In the next test the target is T3, Peptide 1 (P1, 30aa).
T3 construct: also called peptide 1 of hIL-21
T3 sequence (peptide, as listed by the source): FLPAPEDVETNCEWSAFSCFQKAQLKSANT
The test is described as above. The method, then:
as §1

The target of a further test is T4, Peptide 5 of hIL-21 (human).
T4 construct: also called P5
T4 peptide: PPSTNAGRRQKHRLT
As to the kind of experiment: ELISA, biotinylated 2P2 on coated peptide. The method, then:
as §1
(In general: ELISA stands for enzyme-linked immunosorbent assay.)

A further test addresses T5, Peptide 4 of hIL-21 (human).
T5 construct: also called P4
T5 peptide: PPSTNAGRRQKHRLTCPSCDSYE
As to the kind of experiment: ELISA, biotinylated 2P2 on coated peptide. The method, then: as §1

In a further test the target is T6, Peptide 3 of hIL-21 (human).
T6 construct: also called P3
T6 peptide: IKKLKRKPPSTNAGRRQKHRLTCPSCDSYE
As to the kind of experiment: ELISA: coated Peptide 3, biotinylated 2P2, Streptavidin-HRP/TMB, A450. On the procedure:
as §1

T2 sequence (peptide, as listed by the source): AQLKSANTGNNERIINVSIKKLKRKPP

B1: monoclonal antibody 2P2 (antibody, V domains shown)
VH: EVQLQQSGADLVRSGASVKLSCTASGFNIKDYYIHWVKQRPEQGLELIGWIDPESGDTEYAPKFQVKATMTADTSSNTAYLQLSSLTSEDTAVYYCNDGSGYWGQGTTLTVSS
VL: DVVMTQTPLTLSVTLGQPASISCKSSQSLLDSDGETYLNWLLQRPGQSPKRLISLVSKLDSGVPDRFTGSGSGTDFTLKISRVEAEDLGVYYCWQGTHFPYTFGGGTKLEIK
notes: Mouse monoclonal antibody; it was detected with anti-mouse IgG in ELISA; also called mAb 2P2; m2P2
In the case of B1, in the test with human IL-21 [1], the “bioactivity of human IL-21 (proliferation of Ba/F3-hIL-21 R cells, [3H]-thymidine incorporation)” value was more than 10 fold. Further, the “hIL-21 mediated human B cell proliferation (CFSE dilution, flow cytometry)” value with human IL-21 [1] was approximately 20 fold. For the same molecule, the “hIL-21 mediated human CD8 T cell activation (granzyme B/perforin double positive cells)” value with human IL-21 [1] was more than 10 fold. Further, the Kd with human IL-21 [2] came out at 0.0201 nM; with human IL-21 [3], 3.33 nM. The molecule further returned a koff with human IL-21 [2] of 0.000512 s⁻¹. Also, the binding result is recorded as “no binding” with mIL21; “no binding” with Peptide 2 (P2); “no binding” with Peptide 1 (P1, 30aa); “binds” in the test with Peptide 5 of hIL-21; “binds” with Peptide 4 of hIL-21; “binds” with Peptide 3 of hIL-21.

B2: humanized 2P2 antibody (antibody, V domains shown)
VH: QVQLVQSGAEVKKPGASVKVSCKASGFNIKDYYIHWVRQAPGQGLELIGWIDPESGDTNYAQKFQVKATMTRDTSISTAYMELSRLRSDDTAVYYCNDGSGYWGQGTTVTVSS
VL: DVVMTQSPLSLPVTLGQPASISCKSSQSLLDSDGETYLNWLQQRPGQSPRRLISLVSKLDSGVPDRFSGSGSGTDFTLKISRVEAEDVGVYYCWQGTHFPYTFGQGTKLEIK
notes: it was detected with anti-human IgG in ELISA; also called h2P2; humanised 2P2
For the molecule B2, in the test with human IL-21 [2], the Kd was 0.0305 nM and the koff stood at 0.00037 s⁻¹.
